The results in this text go back to the supplement of paper PMC10598134.

The nature of the data set: collision cross section of unmodified peptide (TIMS, N2, iRT-aligned); higher = larger / more extended gas-phase ion. In outline:
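Synthetic peptide pools (~100 fmol/µL in 2% acetonitrile/0.1% formic acid, iRT standard spiked 1:40) were separated on a 120-min nanoflow C18 gradient at 60 °C. They were analysed on a timsTOF Pro/HT (dda-PASEF, nitrogen, ~2.4 mbar) and identified with MaxQuant. 1/K0 was calibrated with three reference ions and aligned run-wise to the median iRT peptide deviation. Collision cross section came from the Mason-Schamp equation, averaging 1–3 technical replicates of the most abundant feature per charge state.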

± gives the standard deviation.

As to LRQQLQAK, the collision cross section is, setting by setting: (charge state: 2) 346.98 ± 0.88 Å²; (charge state: 3) 414.5 ± 11 Å².
With LSEHATAPTR, the collision cross section (charge state: 2) was found to be 353.05 ± 0.78 Å² and the collision cross section (charge state: 3) is recorded as 452.29 ± 0.22 Å².
Turning to LSESHPDATEDLQR, under “charge state: 3”, the collision cross section is 474.77 ± 1.7 Å².
Turning to LSFGLEDEPLETATK, the collision cross section turned out to be 426.44 ± 0.65 Å² (charge state: 2) and 496.99 ± 0.21 Å² (charge state: 3).
For the setting “charge state: 2”, LSITGTYDLK came in with a collision cross section of 371.61 ± 0.6 Å².
LSQEDPDYGIR returned a collision cross section (charge state: 2) of 376.56 ± 0.14 Å².
In turn, LSSETYSQAK displayed a collision cross section (charge state: 2) of 348.96 ± 1.1 Å².
With LSTPPPLAEEEGLASR, the collision cross section (charge state: 2) amounted to 436.07 ± 0.65 Å² and the collision cross section (charge state: 3) is on record as 482.68 ± 0.86 Å².
On to LTEKELAEAASK, for which the collision cross section came to 387.7 ± 1 Å² (charge state: 2) and 479.05 ± 4.3 Å² (charge state: 3).
In the case of LTSLNVKYNNDK, the collision cross section stood at 409.04 ± 2 Å² (charge state: 2) and 487.29 ± 4.9 Å² (charge state: 3).
In turn, LVFDEYLK gave a collision cross section (charge state: 2) of 354.45 ± 0.59 Å².
As for LVLPSQAQARLPSGEVVK, the collision cross section runs as follows: (charge state: 2) 482.13 ± 2.1 Å²; (charge state: 3) 526.02 ± 0.85 Å².
The corresponding values for LYAVHQEGNK are 357.2 ± 1.5 Å² and 449.31 ± 1.1 Å².
Take LYDIDVAK: where the note is “charge state: 2”, the collision cross section is 334.71 ± 0.73 Å².
On to LYLPVQNK, for which the collision cross section (charge state: 2) was found to be 336.72 ± 0.73 Å².
Where the note is “charge state: 2”, MFLSFPTTK yielded a collision cross section of 348.96 ± 0.14 Å².
The substance MTLSVLSR gave a collision cross section (charge state: 2) of 327.34 ± 0.14 Å².
The substance NLVTGDHIPTPQDLPQR displayed a collision cross section (charge state: 3) of 475.9 ± 0.23 Å².
With PANEKATDDYHYEK, the collision cross section (charge state: 2) amounted to 416.54 ± 2.6 Å² and the collision cross section (charge state: 3) amounted to 493.57 ± 4.5 Å².
For PARGLYSR, the collision cross section is, setting by setting: (charge state: 2) 333.72 ± 0.072 Å²; (charge state: 3) 420.97 ± 6 Å².
For the substance PASGAGAGAGAGKR, the collision cross section (charge state: 2) was 378.29 ± 1.2 Å² and the collision cross section (charge state: 3) was found to be 457.42 ± 4 Å².
Regarding PATSYVR, the collision cross section (charge state: 2) is 307.47 ± 0.15 Å².
The substance PAVTAAPK had a collision cross section (charge state: 2) of 290.54 ± 0.15 Å².
Turning to PDTQYTGR, for the setting “charge state: 2”, the collision cross section turned out to be 315.91 ± 0.73 Å².
For PGGEGPQCEKTTDVK, the collision cross section reads like this: (charge state: 2) 411.04 ± 2 Å²; (charge state: 3) 465.58 ± 3.8 Å².
Regarding PGGLGSSSLYGLGASRPR, the collision cross section is 472.2 ± 0.073 Å² (charge state: 2) and 533.78 ± 0.86 Å² (charge state: 3).
The corresponding values for PGLKGEQGEPGAPGIR are 410.66 ± 1.2 Å² and 510.99 ± 0.86 Å².
As to PGLQGPR, the collision cross section (charge state: 2) stood at 285.1 ± 4.4 Å².
With PGNSGIR, under “charge state: 2”, the collision cross section turned out to be 278.56 ± 0.86 Å².
For the substance PGPKGEAGPTGPQGEPGVR, the collision cross section reads like this: (charge state: 2) 431.75 ± 0.38 Å²; (charge state: 3) 479.17 ± 5.1 Å².
With PGPQPSAETTR, the collision cross section is, setting by setting: (charge state: 2) 342.87 ± 0.58 Å²; (charge state: 3) 415.85 ± 2 Å².
Consider PGPRGQR, for which the collision cross section (charge state: 2) was found to be 296.23 ± 0.53 Å².
PGPVGPPGSGGLK had a collision cross section (charge state: 2) of 353.19 ± 0.41 Å².
In the case of PGSPGPPGSPGPR, the collision cross section by setting is: (charge state: 2) 347.56 ± 0.41 Å²; (charge state: 3) 430.78 ± 12 Å².
As to PGTPAGYGRGR, the collision cross section is 352.56 ± 0.57 Å² (charge state: 2) and 442.29 ± 3.7 Å² (charge state: 3).
The corresponding values for PLPVALQTRLAK are 398.31 ± 0.59 Å² and 471.01 ± 3.4 Å².
Turning to PLRAASPFR, the collision cross section is on record as 352.16 ± 0.084 Å² (charge state: 2) and 447.55 ± 5.2 Å² (charge state: 3).
Regarding PPGFSPFR, the collision cross section (charge state: 2) turned out to be 328.84 ± 0.79 Å².
For PPGFSPFRSSR, the collision cross section is, setting by setting: (charge state: 2) 357.9 ± 0.86 Å²; (charge state: 3) 455.41 ± 1.7 Å².
Consider PRGVISTPVIR, for which the collision cross section was found to be 371.76 ± 0.55 Å² (charge state: 2) and 450.44 ± 3.9 Å² (charge state: 3).
Take PRLPATGTFK: the collision cross section stood at 354.31 ± 1.3 Å² (charge state: 2) and 450.95 ± 3.9 Å² (charge state: 3).
With PRTPTAPAVNLAGAR, the collision cross section (charge state: 2) is listed as 406.96 ± 1.8 Å² and the collision cross section (charge state: 3) was determined as 484.37 ± 1.2 Å².
Substance PSIHGGSGGRGVSVSSAR showed a collision cross section (charge state: 3) of 503.12 ± 0.69 Å².
As to PSVGSQSNQAGQGKR, the collision cross section reads like this: (charge state: 2) 422.59 ± 2.3 Å²; (charge state: 3) 465.3 ± 4.2 Å².
The corresponding values for PSVSTKLISK are 360.6 ± 1.3 Å² and 423.25 ± 3.8 Å².
QGNAVTLGDYYQGR yielded a collision cross section (charge state: 2) of 415.78 ± 0.66 Å².
Take QQETAAAETETR: the collision cross section is listed as 373.98 ± 0.14 Å² (charge state: 2) and 456.85 ± 0.22 Å² (charge state: 3).
Take RFGGPVHHQAQR: the collision cross section by setting is: (charge state: 2) 386.03 ± 0.46 Å²; (charge state: 3) 495.72 ± 1.2 Å².
With RFSPPSSSLQPGK, the collision cross section by setting is: (charge state: 2) 393.03 ± 0.67 Å²; (charge state: 3) 484.72 ± 0.22 Å².
The corresponding values for RGATPPAPPR are 338.24 ± 0.44 Å² and 461.07 ± 2.4 Å².
Take RGATPPAPPRR: the collision cross section (charge state: 3) is 465.11 ± 2.3 Å².
As to RGFGFGGFAISAGK, the collision cross section runs as follows: (charge state: 2) 395.08 ± 0.89 Å²; (charge state: 3) 486.34 ± 2.6 Å².
With RGGFAVQAK, under “charge state: 2”, the collision cross section is recorded as 337.58 ± 0.46 Å².
In the case of RGPPGAK, the collision cross section (charge state: 2) came out at 308.91 ± 1.4 Å².
The same measure, in the same setting: for RGVGAGAIAK the value was 327.01 ± 0.73 Å².
Under “charge state: 3”, RLDINTNTYTSQDLK displayed a collision cross section of 533.11 ± 1 Å².
Take RLPNVHGR: the collision cross section is on record as 332.52 ± 0.039 Å² (charge state: 2) and 419.7 ± 5.1 Å² (charge state: 3).
In the case of RLPTTGYLVYR, the collision cross section by setting is: (charge state: 2) 389.8 ± 0.35 Å²; (charge state: 3) 475.19 ± 2.9 Å².
Regarding SAGSVESPSVSSTHR, the collision cross section reads like this: (charge state: 2) 394.4 ± 0.14 Å²; (charge state: 3) 493.72 ± 0.22 Å².
Take SALAAAQTQVAEYK: the collision cross section (charge state: 2) worked out at 422.48 ± 1.1 Å².
Regarding SDDESSQKDIK, the collision cross section is, setting by setting: (charge state: 2) 372.47 ± 1.1 Å²; (charge state: 3) 449.63 ± 0.82 Å².
SDSGKPYYYNSQTK: the collision cross section is, setting by setting: (charge state: 2) 416.14 ± 3 Å²; (charge state: 3) 478.86 ± 16 Å².
Turning to SEASSEFAKK, the collision cross section by setting is: (charge state: 2) 351.87 ± 0.55 Å²; (charge state: 3) 422.04 ± 3.9 Å².
On to SEGFDTYR, for which the collision cross section (charge state: 2) turned out to be 330.1 ± 0.73 Å².
For the substance SFDEVEGVFGRGGGR, the collision cross section (charge state: 2) turned out to be 414.68 ± 0.96 Å² and the collision cross section (charge state: 3) was found to be 509.8 ± 1.2 Å².
As for SFEDIHQYR, the collision cross section (charge state: 2) came out at 359.99 ± 0.48 Å² and the collision cross section (charge state: 3) is recorded as 450.82 ± 1.1 Å².
In turn, SFSASGAQIVSR returned a collision cross section (charge state: 2) of 366.99 ± 0.14 Å².
In turn, SGATAGAAGGRGK showed a collision cross section (charge state: 2) of 361.16 ± 1.5 Å² and a collision cross section (charge state: 3) of 443.5 ± 4.6 Å².
In turn, SGFGKFER came in with a collision cross section (charge state: 2) of 339.56 ± 3 Å².
On to SGGGYGGDRGGGYGGDR, for which the collision cross section reads like this: (charge state: 2) 393.08 ± 1.3 Å²; (charge state: 3) 460.09 ± 0.81 Å².
For SGGGYGGDRSSGGGYSGDR, the collision cross section (charge state: 3) was 476.79 ± 0.56 Å².
With SGGRGVSVSSAR, the collision cross section turned out to be 352.78 ± 0.057 Å² (charge state: 2) and 442.14 ± 3.7 Å² (charge state: 3).
The corresponding values for SGGYGGSRDYYSSR are 399.15 ± 1.2 Å² and 474.66 ± 1.4 Å².
In turn, SGKFTQQDIDEAK returned a collision cross section (charge state: 2) of 412.77 ± 2.3 Å² and a collision cross section (charge state: 3) of 486.03 ± 4.9 Å².
Consider SGNLTEDDKHNNAK, for which the collision cross section (charge state: 2) was 412.58 ± 1.5 Å² and the collision cross section (charge state: 3) came to 490.18 ± 3.5 Å².
For the substance SGRGGNFGFGDSR, the collision cross section runs as follows: (charge state: 2) 375.82 ± 0.59 Å²; (charge state: 3) 452.15 ± 2.9 Å².
SGYSSPGSPGTPGSR yielded a collision cross section (charge state: 2) of 379.95 ± 0.14 Å².
For SHLRHAIPSAER, the collision cross section turned out to be 388.74 ± 0.39 Å² (charge state: 2) and 458.41 ± 2.7 Å² (charge state: 3).
For SISQSISGQK, the collision cross section (charge state: 2) stood at 337.94 ± 0.14 Å².
As for SITHSTVGSKGEK, the collision cross section is, setting by setting: (charge state: 2) 404.31 ± 1.8 Å²; (charge state: 3) 464.75 ± 3.9 Å².
As to SKHLQEQLNELK, the collision cross section by setting is: (charge state: 2) 411.35 ± 1.6 Å²; (charge state: 3) 481.15 ± 4.4 Å².
The corresponding values for SKLLFSNTAAQK are 393.75 ± 6 Å² and 444.64 ± 5 Å².
In the case of SLEEEGAAHSGKR, the collision cross section worked out at 399.57 ± 1.8 Å² (charge state: 2) and 472.78 ± 3.7 Å² (charge state: 3).
Substance SLFFGGKGAPLQR came in with a collision cross section (charge state: 2) of 408.73 ± 1.1 Å² and a collision cross section (charge state: 3) of 446.07 ± 3.4 Å².
With SLGEPAAGEGSAKR, the collision cross section is reported as 397.19 ± 1.1 Å² (charge state: 2) and 478.87 ± 5.9 Å² (charge state: 3).
With SLIGKVDGTSHVTGK, the collision cross section by setting is: (charge state: 2) 430.43 ± 0.65 Å²; (charge state: 3) 491.82 ± 0.22 Å².
